In patent publication US20160046921A1:
One block for each binder: values may come before it.

Key:
[1] = target: cys-gly-conjugate (compound of formula FIII); assay: cell-based or functional assay
Pro-Gly = target: T1, Pro-Gly
T1 chain: PG

Gly-Gly = target: T2, Gly-Gly
T2 chain: GG

Ala-Gly = target: T3, Ala-Gly
T3 chain: AG

Z-Gly-Gly = target: T4, Z-Gly-Gly
T4 chain: GG

[2] = target: T5, cys-gly-conjugate (compound of formula FIII)
T5 chain: CG

Ala-Ala = target: T6, Ala-Ala
T6 chain: AA

[3] = target: T7, H-Cys(Bzl)-Gly-OH (S-benzyl-Cys-Gly)
T7 chain: CG

release of 3-sulfanyl-3-methyl-hexanol from the Cys-Gly-conjugate [mM]; 10 fold dilution of clear cell lysate, + β-lyase [1]: 1 mM | release of 3-sulfanyl-3-methyl-hexanol from the Cys-Gly-conjugate [mM]; 100 fold dilution of clear cell lysate, + β-lyase [1]: 0.92 mM | release of 3-sulfanyl-3-methyl-hexanol from the Cys-Gly-conjugate [mM]; 1000 fold dilution of clear cell lysate, + β-lyase [1]: 0.46 mM
B1: Ax20 peptidase (peptidase from Corynebacterium sp. Ax20, SEQ ID NO:2), recombinant, without histidine tag (enzyme)
chain: MSNDKAATSTNFNLTPNRERIFQELSELISHYSPHSMPEHADTHEEAAKWVTAKLEELGLDVTRHPTVDDADTIIGVKEPVGDAPTILLYSHYDVVPAQNPAVWTNDPLELDERDGRWYGRGAADCKGNVIMHLEALRMVQENGGTDLGLKVVMEGSEELGGEDGLGKLIDANPELFTADVIFIGDGGNVAVGIPTLTTHLRGGAQLRFKVDTLEGPVHSGGWGGAAPDAAHALIRIIDSFFDEHGRTTIEGVDTTAKWEGDPYDRETFRKDARVLDGVQLLGTVDDEPADMVWARPAITVIGFTSVPVEDATNIVNPTAEAQFNLRVPAPQSAAEVAKKVEEQIRARAPWGAKVEVSITGVNEPFSTDPNGPAVQHFGKCLQDAYGAEHLTVVGTGGSIPLTVTLQKHFPDAEFALYGVADPAANIHGVDESVDPTEIEHVAIAEAEFLLTYGK
release of a free NH2 group (fluorescamine derivatisation) (Pro-Gly): Cleavage of the peptide substrate Pro-Gly by addition of the recombinant Ax20 peptidase (SEQ ID NO: 2) released a unique free NH2 group

release of 3-sulfanyl-3-methyl-hexanol from the Cys-Gly-conjugate [mM]; 10 fold dilution of clear cell lysate, + β-lyase [1]: 0.94 mM | release of 3-sulfanyl-3-methyl-hexanol from the Cys-Gly-conjugate [mM]; 100 fold dilution of clear cell lysate, + β-lyase [1]: 0.88 mM | release of 3-sulfanyl-3-methyl-hexanol from the Cys-Gly-conjugate [mM]; 1000 fold dilution of clear cell lysate, + β-lyase [1]: 0.36 mM
B2: Ax20 peptidase with histidine tag (SEQ ID NO:2 ligated to a 6x Histidine-Tag), recombinant (enzyme, not shown: small tags and cut ends)
chain: B1 chain
Cleavage (thin layer chromatography) (Gly-Gly): + | Cleavage (thin layer chromatography) (Ala-Gly): ++ | Cleavage (thin layer chromatography) (Z-Gly-Gly): - | Cleavage (thin layer chromatography) [2]: +++ | Cleavage (thin layer chromatography) (Pro-Gly): + | Cleavage (thin layer chromatography) (Ala-Ala): ++ | Cleavage (thin layer chromatography) [3]: +++

B3: β-lyase from Corynebacterium sp. Ax20 (cystathionine-β-lyase, metC gene product) (protein)
chain: MQFSNLDTLRTRGTRKWTQFDDDVIPMFVAESDFPTAPAIKEAIIDACEREMFGYTPAPHAHHLGEAVADFYDWRYGWRPDAAKIFPVADVVRGVLLAIQYFTDGDVIVPVPAYFPFLPIAEAAGRNRIDISSDKGLEGGLDMAEVEEAFKNGAGSIIVTNPFNPGGWMFTSEELDQICDIARRYKGRVLVDEIHAPLTYGKRHVCAAANNPDVCITVTATSKAWNVAGLKCAQMIFTNDEDVKTWNAINPVAKDGVGTLGIIAAEAAYESGREHLDWQVEQLKANRDWLVENLPSLIPGIRFEIPDATYLMFLDFKDTKLGVDKPAAYLLKHARVALSEGVDFGPGGEHRARMNFATSPEILKEATERIARAIEVV
release of 3-sulfanyl-3-methyl-hexanol from cys-gly-conjugate [mM] (gas chromatography) [2]: < 0.03 mM
